Test results from patent publication US10864251B2, “Peptides of syndecan-1 for inhibiting angiogenesis” (Wisconsin Alumni Research Foundation, priority 2006, dated 2020).
Like-named read-outs stand apart in the source and are kept apart here. Where no end group is shown, it is not given here.

B1: S1ED: recombinant mouse Sdc1 ectodomain (amino acids 18-251), expressed in bacteria as GST fusion or 6×His-tagged protein (protein)
chain: QPALPQIVAVNVPPEDQDGSGDDSDNFSGSGTGALPDTLSRQTPSTWKDVWLLTATPTAPEPTSSNTETAFTSVLPAGEKPEEGEPVLHVEAEPGFTARDKEKEVTTRPRETVQLPITQRASTVRVTTAQAAVTSHPHGGMQPGLHETSAPTAPGQPDHQPPRVEGGGTSVIKEVVEDGTANQLPAGEGSGEQDFTFETSGENTAVAAVEPGLRNQPPVDEGATGASQSLLDRK
modifications: left off: a dimerising Fc or GST
notes: recombinant mouse Sdc1 ectodomain (amino acids 18-251), expressed in bacteria as GST fusion or 6×His-tagged protein

System: human dermal microvascular endothelial cells (HMEC-1)
Assay type: cell-based
Method: FIGS. 6A-6H—Inhibition of B82L fibroblast and HMEC-1 cell attachment and spreading on VN by synstatin82-130. B82L fibroblasts, which rely on the αvβ5 integrin for attachment to VN, and human dermal microvascular endothelial cells, which rely on both the αvβ3 and αvβ5 integrins for attachment to VN, were plated in the absence of peptide (FIGS. 6A, 6E) or in the presence of 0.1 (FIGS. 6B, 6F), 0.3 (FIGS. 6C, 6G) or 1 μM (FIGS. 6D, 6H) synstatin82-130 for 2 hr and processed as described in FIG. 2.
FIGS. 10A-10D—Dependence of HMEC cell attachment and spreading on integrin activation by Sdc1 and its inhibition by SSTN. (FIG. 10A) HMECs were plated for 2 hr either on Sdc1-specific antibody B-B4 to engage Sdc1 or on VN (10 μg/ml coating concentration) to engage the αvβ3 and αvβ5 integrins. Blocking antibodies LM609 (10 μg/ml, specific for αvβ3) and P1F6 (10 μg/ml, specific for αvβ5), SSTN (0.5 μM) or recombinant mouse Sdc1 ectodomain (mS1ED, 5 μM) were added. The ligand mimetic antibody WOW1 was used to detect activated αvβ3 integrin on cells plated on B-B4. (FIG. 10B) HMECs were treated with siRNA oligo specific for human Sdc1 for 48 hr prior to plating on VN. Sdc1 expression was quantified by flow cytometry using human Sdc1-specific mAb B-B4 or a control mouse IgG. (FIG. 10C-10D) The percentage of cell attaching or attaching and spreading was quantified for HMECs, HAEC and MAECs plated on VN for 24 hr in the presence of mS1ED or SSTN, or after siRNA silencing of Sdc1 expression in the presence of mAb LM609 to block αvβ3 integrin, P1F6 to block αvβ5 integrin, or both antibodies.
FIG. 14—Activity of SSTN peptides. A diagram of SSTN82-130 used in our experiments is shown. The gray letters designate amino acids that are identical or highly conserved across species (mouse, human, rat, hamster). Shorter peptides have been tested using HMEC-1 endothelial cells for inhibition of […] mediated cell attachment and spreading in comparison to SSTN82-130.
Cell adhesion and spreading assays were performed with modification to the previous procedures (Lebakken and Rapraeger, 1996. Briefly, human plasma vitronectin or fibronectin at 10-30 μg/ml were applied to nitrocellulose-coated ten well slides (Erie Scientific) and incubated for 1-2 h at 37° C. Slides were blocked with 1.0% heat-denatured bovine serum albumin for a minimum of 30 min at 37° C. Cells were detached from the substratum using 5 mM EDTA in Tris-buffered saline and resuspended in HEPES-buffered culture medium containing 0.1% heat-denatured BSA. Cells were plated at a density of 15,000 cells per well and allowed to attach and spread for 2 h prior to fixation in 4% paraformaldehyde in CMF-PBS. For fluorescence microscopy, fixed cells were permeabilized in 0.2% Triton X-100, labeled with rhodamine-conjugated phalloidin and analyzed using fluorescence microscopy. For testing inhibition by recombinant mScd-1ED and synstatin82-130, cells were pre-incubated 10 min before plating in the presence of the inhibitor. […] LM609 was used as a specific block to αvβ3 and P1F6 was used as a specific blocker of αvβ5.
Finally, the inventors have examined HMEC-1 cells, which are immortalized human dermal microvascular endothelial cells. Microvascular endothelial cells are regarded as being the main source of endothelial cells that carry out angiogenesis in vivo. The HMEC-1 cells grown in serum-containing culture medium express Sdc1 (as noted earlier) and also express active αvβ3 and αvβ5 integrins. […]

Molecule | IC50 (6 h) [µM] | IC50 (HMEC-1, αvβ3 and αvβ5 integrin-dependent, read-out: IC50, spreading on VN) [µM] | reduction of cell spreading (HMECs on vitronectin, 1-3 μM) | spreading on vitronectin (HMECs, 5.0 μM)
SNTETAFTSVLPAGEKPEEGEPVLHVEAEPGFTARDKEKEVTTRPRETV [synstatin82-130] | ~0.1 | – | – | –
B1 | – | 3 to 10 | 80-90% | blocks spreading as effectively as the combined antibody treatment
